T1: SHROOM4, Q9ULL8
T1 sequence (Q9ULL8 5-102, limits assumed, looked up): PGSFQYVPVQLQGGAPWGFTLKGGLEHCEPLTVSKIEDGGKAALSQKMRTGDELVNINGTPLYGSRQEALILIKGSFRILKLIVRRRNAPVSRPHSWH

T2: PDZD7_1, Q9H5P4
T2 sequence (Q9H5P4 81-178, limits assumed, looked up): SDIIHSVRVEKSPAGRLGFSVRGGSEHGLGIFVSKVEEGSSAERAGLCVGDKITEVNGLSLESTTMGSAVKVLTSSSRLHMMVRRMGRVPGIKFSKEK

T3: MPDZ_7, O75970
T3 sequence (O75970 1146-1253, limits assumed, looked up): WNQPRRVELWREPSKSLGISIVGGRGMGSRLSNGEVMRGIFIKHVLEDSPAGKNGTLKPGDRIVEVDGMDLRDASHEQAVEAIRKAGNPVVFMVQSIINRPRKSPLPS

T4: MPP1, Q00013
T4 sequence (Q00013 66-162, limits assumed, looked up): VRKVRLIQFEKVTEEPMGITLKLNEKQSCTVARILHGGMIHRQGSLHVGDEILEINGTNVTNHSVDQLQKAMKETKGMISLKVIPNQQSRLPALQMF

T5: PDZD4, Q76G19
T5 sequence (Q76G19 125-224, limits assumed, looked up): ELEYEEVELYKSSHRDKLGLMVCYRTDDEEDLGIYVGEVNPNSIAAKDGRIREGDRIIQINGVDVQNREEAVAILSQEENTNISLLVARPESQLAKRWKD

T6: PDLIM3, Q53GG5
T6 sequence (Q53GG5 1-94, limits assumed, looked up): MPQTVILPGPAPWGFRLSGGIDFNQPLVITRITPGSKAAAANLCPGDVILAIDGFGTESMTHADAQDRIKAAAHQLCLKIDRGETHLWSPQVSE

T7: USH1C_1, Q9Y6N9
T7 sequence (Q9Y6N9 82-179, limits assumed, looked up): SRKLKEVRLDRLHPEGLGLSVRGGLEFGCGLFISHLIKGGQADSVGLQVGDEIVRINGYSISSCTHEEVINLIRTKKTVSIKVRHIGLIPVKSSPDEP

T8: USH1C_3, Q9Y6N9
T8 sequence (Q9Y6N9 447-547, limits assumed, looked up): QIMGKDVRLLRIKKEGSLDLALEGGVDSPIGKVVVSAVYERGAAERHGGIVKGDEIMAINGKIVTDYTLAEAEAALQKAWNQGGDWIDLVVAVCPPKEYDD

T9: TJP3_1, O95049
T9 sequence (O95049 6-103, limits assumed, looked up): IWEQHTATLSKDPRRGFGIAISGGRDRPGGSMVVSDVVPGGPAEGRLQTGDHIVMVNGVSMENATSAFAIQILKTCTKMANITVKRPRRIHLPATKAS

T10: MPDZ_2, O75970
T10 sequence (O75970 252-347, limits assumed, looked up): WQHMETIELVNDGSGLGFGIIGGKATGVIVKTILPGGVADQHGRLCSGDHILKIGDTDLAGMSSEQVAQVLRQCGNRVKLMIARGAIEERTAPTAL

T11: DVL1, O14640
T11 sequence (O14640 246-333, limits assumed, looked up): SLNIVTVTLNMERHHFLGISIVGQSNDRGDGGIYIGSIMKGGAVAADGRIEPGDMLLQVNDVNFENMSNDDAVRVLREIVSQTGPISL

T12: MPDZ_3, O75970
T12 sequence (O75970 372-473, limits assumed, looked up): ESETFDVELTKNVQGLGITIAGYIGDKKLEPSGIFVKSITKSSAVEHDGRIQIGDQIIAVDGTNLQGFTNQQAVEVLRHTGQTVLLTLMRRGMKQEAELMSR

T13: PTPN4, P29074
T13 sequence (P29074 512-599, limits assumed, looked up): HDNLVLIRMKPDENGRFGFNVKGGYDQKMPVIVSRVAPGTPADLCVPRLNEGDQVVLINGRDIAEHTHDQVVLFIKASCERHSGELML

T14: PDZRN3_2, Q9UPQ7
T14 sequence (Q9UPQ7 414-513, limits assumed, looked up): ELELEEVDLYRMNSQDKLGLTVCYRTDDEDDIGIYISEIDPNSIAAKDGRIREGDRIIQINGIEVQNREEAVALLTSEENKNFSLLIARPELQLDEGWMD

T15: SHROOM3, Q8TF72
T15 sequence (Q8TF72 20-120, limits assumed, looked up): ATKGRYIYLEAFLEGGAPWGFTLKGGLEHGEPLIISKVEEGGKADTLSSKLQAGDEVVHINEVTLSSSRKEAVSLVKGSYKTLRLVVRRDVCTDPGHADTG

B1: CYSLTR2, Q9NS75 (peptide)
chain: SVWLRKETRV
B2: TJP2, Q9UDY2 (peptide)
chain: QSARYRDTEL
B3: GRASP, Q7Z6J2 (peptide)
chain: RSLEEEESQL

Legend:
Assay in all cases: holdup assay
Parameters in all cases: key: below the threshold = too weak to quantify, mostly under pKd 3.1 to 4
Conditions in all cases: plain residues with an end cap or a label only (N-terminal biotin on a linker: ttds)
SHROOM4, Q9ULL8 = target: T1, SHROOM4, Q9ULL8
PDZD7_1, Q9H5P4 = target: T2, PDZD7_1, Q9H5P4
MAGI1_5, Q96QZ7 = target: MAGI1_5, Q96QZ7
MAGI1_5, Q96QZ7, sequence (Q96QZ7 986-1098): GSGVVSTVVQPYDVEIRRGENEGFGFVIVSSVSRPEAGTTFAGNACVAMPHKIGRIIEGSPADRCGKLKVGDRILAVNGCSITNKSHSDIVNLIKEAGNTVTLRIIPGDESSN

MPDZ_7, O75970 = target: T3, MPDZ_7, O75970
SCRIB_4, Q14160 = target: SCRIB_4, Q14160
SCRIB_4, Q14160, sequence (Q14160 1095-1204): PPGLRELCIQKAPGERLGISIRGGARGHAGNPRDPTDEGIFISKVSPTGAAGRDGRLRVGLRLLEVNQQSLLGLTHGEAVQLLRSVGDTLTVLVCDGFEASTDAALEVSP

MPP1, Q00013 = target: T4, MPP1, Q00013
PDZD4, Q76G19 = target: T5, PDZD4, Q76G19
PARD3B_2, Q8TEW8 = target: PARD3B_2, Q8TEW8
PARD3B_2, Q8TEW8, sequence (Q8TEW8 376-471): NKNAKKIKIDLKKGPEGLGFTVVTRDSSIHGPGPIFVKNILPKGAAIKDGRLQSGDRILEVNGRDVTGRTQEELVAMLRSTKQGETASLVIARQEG

PREX1_1, Q8TCU6 = target: PREX1_1, Q8TCU6
PREX1_1, Q8TCU6, sequence (Q8TCU6 608-718): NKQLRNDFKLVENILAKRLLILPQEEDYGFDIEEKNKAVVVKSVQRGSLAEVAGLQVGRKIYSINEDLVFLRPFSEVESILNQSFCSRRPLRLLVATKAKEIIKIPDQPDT

PDLIM3, Q53GG5 = target: T6, PDLIM3, Q53GG5
USH1C_1, Q9Y6N9 = target: T7, USH1C_1, Q9Y6N9
USH1C_3, Q9Y6N9 = target: T8, USH1C_3, Q9Y6N9
TJP3_1, O95049 = target: T9, TJP3_1, O95049
IL16_2, Q14005 = target: IL16_2, Q14005
IL16_2, Q14005, sequence (Q14005 350-450): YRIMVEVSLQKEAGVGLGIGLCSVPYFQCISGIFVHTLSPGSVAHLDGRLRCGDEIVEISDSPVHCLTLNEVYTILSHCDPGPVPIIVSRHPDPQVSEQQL

MPDZ_2, O75970 = target: T10, MPDZ_2, O75970
DVL1, O14640 = target: T11, DVL1, O14640
Inadl_7, Q8NI35 = target: Inadl_7, Q8NI35
Inadl_7, Q8NI35, sequence (Q8NI35 1219-1332): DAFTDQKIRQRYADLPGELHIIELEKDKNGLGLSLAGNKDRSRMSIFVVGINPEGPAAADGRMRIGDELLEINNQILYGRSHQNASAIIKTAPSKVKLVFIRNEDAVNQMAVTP

PTPN13_2, Q12923 = target: PTPN13_2, Q12923
PTPN13_2, Q12923, sequence (Q12923 1363-1462): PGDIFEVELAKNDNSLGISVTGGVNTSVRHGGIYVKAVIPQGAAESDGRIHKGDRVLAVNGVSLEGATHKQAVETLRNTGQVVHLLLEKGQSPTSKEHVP

MPDZ_3, O75970 = target: T12, MPDZ_3, O75970
PTPN4, P29074 = target: T13, PTPN4, P29074
PDZRN3_2, Q9UPQ7 = target: T14, PDZRN3_2, Q9UPQ7
SHROOM3, Q8TF72 = target: T15, SHROOM3, Q8TF72

Binder | pKd (SHROOM4, Q9ULL8) | pKd (PDZD7_1, Q9H5P4) | pKd (MAGI1_5, Q96QZ7) | pKd (MPDZ_7, O75970) | pKd (SCRIB_4, Q14160) | pKd (MPP1, Q00013) | pKd (PDZD4, Q76G19) | pKd (PARD3B_2, Q8TEW8) | pKd (PREX1_1, Q8TCU6) | pKd (PDLIM3, Q53GG5) | pKd (USH1C_1, Q9Y6N9) | pKd (USH1C_3, Q9Y6N9) | pKd (TJP3_1, O95049) | pKd (IL16_2, Q14005) | pKd (MPDZ_2, O75970) | pKd (DVL1, O14640) | pKd (Inadl_7, Q8NI35) | pKd (PTPN13_2, Q12923) | pKd (MPDZ_3, O75970) | pKd (PTPN4, P29074) | other results
B1 | below the threshold | below the threshold | 4.57 | 4.33 | 4.91 | 6.03 | below the threshold | below the threshold | below the threshold | below the threshold | below the threshold | below the threshold | below the threshold | below the threshold | below the threshold | 4.32 | below the threshold | below the threshold | below the threshold | 4.52 | pKd (PDZRN3_2, Q9UPQ7): below the threshold; pKd (SHROOM3, Q8TF72): below the threshold
B2 | below the threshold | below the threshold | below the threshold | below the threshold | below the threshold | below the threshold | below the threshold | below the threshold | below the threshold | below the threshold | below the threshold | below the threshold | below the threshold | below the threshold | below the threshold | below the threshold | below the threshold | below the threshold | below the threshold | 4.48 | pKd (PDZRN3_2, Q9UPQ7): below the threshold; pKd (SHROOM3, Q8TF72): below the threshold
B3 | below the threshold | below the threshold | below the threshold | below the threshold | below the threshold | below the threshold | below the threshold | below the threshold | 4.08 | below the threshold | below the threshold | below the threshold | below the threshold | below the threshold | below the threshold | below the threshold | below the threshold | below the threshold | below the threshold | below the threshold | pKd (PDZRN3_2, Q9UPQ7): below the threshold; pKd (SHROOM3, Q8TF72): below the threshold
